# Test results published in paper PMC9482650, “Quantitative fragmentomics allow affinity mapping of interactomes” (Nature Communications, 2022).
# T1: PDZD2_2, O15018
# T1 sequence (O15018 329-429, limits assumed, looked up): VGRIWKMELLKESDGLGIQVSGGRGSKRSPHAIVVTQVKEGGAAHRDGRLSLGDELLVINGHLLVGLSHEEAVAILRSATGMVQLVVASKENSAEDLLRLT
# T2: PDZRN3_1, Q9UPQ7
# T2 sequence (Q9UPQ7 244-349, limits assumed, looked up): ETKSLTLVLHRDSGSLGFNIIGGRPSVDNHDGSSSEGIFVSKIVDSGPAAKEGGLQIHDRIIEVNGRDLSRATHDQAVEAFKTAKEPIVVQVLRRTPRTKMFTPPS
# T3: SNTG2, Q9NY99
# T3 sequence (Q9NY99 68-166, limits assumed, looked up): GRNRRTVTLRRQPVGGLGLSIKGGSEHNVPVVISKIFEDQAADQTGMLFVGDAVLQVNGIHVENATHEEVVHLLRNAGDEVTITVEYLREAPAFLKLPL
# T4: GRIP1_4, Q9Y3R0
# T4 sequence (Q9Y3R0 467-571, limits assumed, looked up): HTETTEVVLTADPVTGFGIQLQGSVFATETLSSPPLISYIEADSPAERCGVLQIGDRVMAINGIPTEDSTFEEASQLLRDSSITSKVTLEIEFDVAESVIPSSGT
# T5: SNTB1, Q13884
# T5 sequence (Q13884 107-205, limits assumed, looked up): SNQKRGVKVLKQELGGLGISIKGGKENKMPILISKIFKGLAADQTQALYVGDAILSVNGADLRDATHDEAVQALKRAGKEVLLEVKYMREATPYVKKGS
# T6: LNX2_3, Q8N448
# T6 sequence (Q8N448 463-564, limits assumed, looked up): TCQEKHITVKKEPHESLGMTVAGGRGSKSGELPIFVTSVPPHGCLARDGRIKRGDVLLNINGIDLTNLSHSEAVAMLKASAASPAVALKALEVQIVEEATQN
# T7: NHERF3_4, Q5T2W1
# T7 sequence (Q5T2W1 373-468, limits assumed, looked up): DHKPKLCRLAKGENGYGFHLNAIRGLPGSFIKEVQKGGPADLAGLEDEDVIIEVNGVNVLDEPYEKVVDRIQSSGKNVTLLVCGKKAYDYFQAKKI
# T8: LIN7B, Q9HAP6
# T8 sequence (Q9HAP6 88-185, limits assumed, looked up): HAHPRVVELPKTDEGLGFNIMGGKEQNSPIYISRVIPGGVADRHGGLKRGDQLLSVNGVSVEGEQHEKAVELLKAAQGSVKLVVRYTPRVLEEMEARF
# T9: ARHGAP21, Q5T5U3
# T9 sequence (Q5T5U3 45-169, limits assumed, looked up): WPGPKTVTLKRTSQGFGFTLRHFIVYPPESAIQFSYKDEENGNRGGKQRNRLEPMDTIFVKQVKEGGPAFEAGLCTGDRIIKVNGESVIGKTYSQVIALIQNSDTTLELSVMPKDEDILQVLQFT
# T10: HTRA4, P83105
# T10 sequence (P83105 378-476, limits assumed, looked up): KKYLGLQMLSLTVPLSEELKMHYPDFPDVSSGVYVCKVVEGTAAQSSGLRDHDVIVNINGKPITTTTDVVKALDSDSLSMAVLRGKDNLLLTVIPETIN
# T11: APBA2_2, Q99767
# T11 sequence (Q99767 654-744, limits assumed, looked up): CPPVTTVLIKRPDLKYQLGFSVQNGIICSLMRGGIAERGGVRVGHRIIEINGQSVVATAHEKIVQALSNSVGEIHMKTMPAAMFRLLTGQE
# T12: LIN7C, Q9NUP9
# T12 sequence (Q9NUP9 88-185, limits assumed, looked up): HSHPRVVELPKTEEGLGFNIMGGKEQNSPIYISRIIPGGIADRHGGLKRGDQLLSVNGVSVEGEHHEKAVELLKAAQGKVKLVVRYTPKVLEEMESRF
# B1: TRAF7, Q6Q0C0 (peptide)
# chain: VDSTVKVWTC
# B2: CTNNA1, P35221 (peptide)
# chain: LSEFKAMDSI
# B3: BAZ1A, Q9NRL2 (peptide)
# chain: TPPAAKKSRI
# B4: BPIFA2, Q96DR5 (peptide)
# chain: QHKTQLQTLI
# Experiments:
# Test in all cases: holdup assay
# Set-up in all cases: key: below the threshold = too weak to quantify, mostly under pKd 3.1 to 4
# Settings in all cases: plain residues with an end cap or a label only (N-terminal biotin on a linker: ado-ado)
# [1] = target: T1, PDZD2_2, O15018
# [2] = target: T2, PDZRN3_1, Q9UPQ7
# [3] = target: T3, SNTG2, Q9NY99
# [4] = target: T4, GRIP1_4, Q9Y3R0
# [5] = target: FRMPD2_1, Q68DX3
# [6] = target: LNX1_3, Q8TBB1
# [7] = target: DLG1_3, Q12959
# [8] = target: T5, SNTB1, Q13884
# [9] = target: T6, LNX2_3, Q8N448
# [10] = target: Inadl_3, Q8NI35
# [11] = target: TJP1_3, Q07157
# [12] = target: T7, NHERF3_4, Q5T2W1
# [13] = target: T8, LIN7B, Q9HAP6
# [14] = target: LNX1_2, Q8TBB1
# [15] = target: DLG1_2, Q12959
# [16] = target: T9, ARHGAP21, Q5T5U3
# [17] = target: LAP2, Q96RT1
# [18] = target: MAGI2_4, Q86UL8
# [19] = target: T10, HTRA4, P83105
# [20] = target: DLG4_3, P78352
# [21] = target: Inadl_6, Q8NI35
# [22] = target: SCRIB_2, Q14160
# [23] = target: IL16_4, Q14005
# [24] = target: T11, APBA2_2, Q99767
# [25] = target: T12, LIN7C, Q9NUP9
# IL16_4, Q14005, sequence (Q14005 1229-1329): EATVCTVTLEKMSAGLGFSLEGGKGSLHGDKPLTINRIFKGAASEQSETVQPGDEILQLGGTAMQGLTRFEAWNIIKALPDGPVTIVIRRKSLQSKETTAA
# SCRIB_2, Q14160, sequence (Q14160 857-960): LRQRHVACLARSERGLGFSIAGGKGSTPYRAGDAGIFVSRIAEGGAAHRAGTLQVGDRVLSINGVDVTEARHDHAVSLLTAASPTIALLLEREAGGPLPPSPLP
# MAGI2_4, Q86UL8, sequence (Q86UL8 772-865): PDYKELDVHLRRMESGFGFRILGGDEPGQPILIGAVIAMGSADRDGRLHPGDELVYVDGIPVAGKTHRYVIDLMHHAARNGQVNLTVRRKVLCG
# DLG4_3, P78352, sequence (P78352 306-403): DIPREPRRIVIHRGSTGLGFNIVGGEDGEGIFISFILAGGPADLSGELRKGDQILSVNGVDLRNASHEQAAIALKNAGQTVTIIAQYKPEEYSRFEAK
# Inadl_6, Q8NI35, sequence (Q8NI35 1058-1167): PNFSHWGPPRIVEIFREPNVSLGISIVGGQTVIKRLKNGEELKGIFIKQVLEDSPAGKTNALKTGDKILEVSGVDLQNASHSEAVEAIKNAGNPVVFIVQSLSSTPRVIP
# LNX1_2, Q8TBB1, sequence (Q8TBB1 371-470): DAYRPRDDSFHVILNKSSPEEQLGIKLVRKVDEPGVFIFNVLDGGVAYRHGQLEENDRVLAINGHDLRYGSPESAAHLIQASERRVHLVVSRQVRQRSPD
# DLG1_3, Q12959, sequence (Q12959 457-571): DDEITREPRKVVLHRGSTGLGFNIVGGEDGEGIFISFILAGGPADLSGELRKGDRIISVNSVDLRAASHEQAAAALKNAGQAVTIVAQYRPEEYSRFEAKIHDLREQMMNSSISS
# DLG1_2, Q12959, sequence (Q12959 314-412): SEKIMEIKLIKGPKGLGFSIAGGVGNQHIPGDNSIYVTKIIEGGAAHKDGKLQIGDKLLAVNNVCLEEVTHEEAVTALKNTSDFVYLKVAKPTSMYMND
# Inadl_3, Q8NI35, sequence (Q8NI35 359-469): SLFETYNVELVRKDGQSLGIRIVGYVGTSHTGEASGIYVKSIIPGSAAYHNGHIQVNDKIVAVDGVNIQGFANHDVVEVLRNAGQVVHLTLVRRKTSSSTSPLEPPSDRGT
# LNX1_3, Q8TBB1, sequence (Q8TBB1 500-596): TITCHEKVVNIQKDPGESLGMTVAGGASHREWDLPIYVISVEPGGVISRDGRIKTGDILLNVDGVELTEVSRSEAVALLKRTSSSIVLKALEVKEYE
# LAP2, Q96RT1, sequence (Q96RT1 other isoform, or with tags, fused parts or gaps): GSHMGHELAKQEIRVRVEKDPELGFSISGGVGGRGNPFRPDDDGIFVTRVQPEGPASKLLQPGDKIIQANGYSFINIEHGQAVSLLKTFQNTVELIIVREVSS
# TJP1_3, Q07157, sequence (Q07157 416-512): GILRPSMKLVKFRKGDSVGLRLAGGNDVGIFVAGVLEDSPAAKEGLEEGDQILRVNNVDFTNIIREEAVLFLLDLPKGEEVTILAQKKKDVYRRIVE
# FRMPD2_1, Q68DX3, sequence (Q68DX3 770-861): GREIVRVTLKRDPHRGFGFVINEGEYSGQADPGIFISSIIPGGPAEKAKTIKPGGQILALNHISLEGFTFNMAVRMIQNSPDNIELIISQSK
binder,measurement,setting,value
B1,pKd,[1],4.27
same,pKd,[2],below the threshold
same,pKd,[3],3.49
same,pKd,[4],below the threshold
same,pKd,[5],4.45
same,pKd,[6],3.8
same,pKd,[7],below the threshold
same,pKd,[8],below the threshold
same,pKd,[9],below the threshold
same,pKd,[10],4.4
same,pKd,[11],below the threshold
same,pKd,[12],below the threshold
same,pKd,[13],3.64
same,pKd,[14],5.3
same,pKd,[15],3.84
same,pKd,[16],4.36
same,pKd,[17],below the threshold
same,pKd,[18],below the threshold
same,pKd,[19],4.14
same,pKd,[20],3.56
same,pKd,[21],below the threshold
same,pKd,[22],below the threshold
same,pKd,[23],below the threshold
same,pKd,[24],below the threshold
same,pKd,[25],below the threshold
B2,pKd,[1],below the threshold
same,pKd,[2],below the threshold
same,pKd,[3],below the threshold
same,pKd,[4],below the threshold
same,pKd,[5],below the threshold
same,pKd,[6],below the threshold
same,pKd,[7],below the threshold
same,pKd,[8],below the threshold
same,pKd,[9],below the threshold
same,pKd,[10],below the threshold
same,pKd,[11],below the threshold
same,pKd,[12],below the threshold
same,pKd,[13],3.74
same,pKd,[14],below the threshold
same,pKd,[15],below the threshold
same,pKd,[16],4.01
same,pKd,[17],below the threshold
same,pKd,[18],below the threshold
same,pKd,[19],3.85
same,pKd,[20],below the threshold
same,pKd,[21],below the threshold
same,pKd,[22],below the threshold
same,pKd,[23],below the threshold
same,pKd,[24],below the threshold
same,pKd,[25],below the threshold
B3,pKd,[1],3.97
same,pKd,[2],below the threshold
same,pKd,[3],below the threshold
same,pKd,[4],below the threshold
same,pKd,[5],below the threshold
same,pKd,[6],below the threshold
same,pKd,[7],3.81
same,pKd,[8],below the threshold
same,pKd,[9],below the threshold
same,pKd,[10],below the threshold
same,pKd,[11],below the threshold
same,pKd,[12],below the threshold
same,pKd,[13],3.62
same,pKd,[14],below the threshold
same,pKd,[15],below the threshold
same,pKd,[16],3.58
same,pKd,[17],below the threshold
same,pKd,[18],3.71
same,pKd,[19],below the threshold
same,pKd,[20],below the threshold
same,pKd,[21],below the threshold
same,pKd,[22],below the threshold
same,pKd,[23],3.69
same,pKd,[24],below the threshold
same,pKd,[25],below the threshold
B4,pKd,[1],4.25
same,pKd,[2],3.65
same,pKd,[3],3.63
same,pKd,[4],below the threshold
same,pKd,[5],below the threshold
same,pKd,[6],below the threshold
same,pKd,[7],3.68
same,pKd,[8],3.49
same,pKd,[9],below the threshold
same,pKd,[10],3.93
same,pKd,[11],below the threshold
same,pKd,[12],3.48
same,pKd,[13],below the threshold
same,pKd,[14],below the threshold
same,pKd,[15],4.88
same,pKd,[16],4.01
same,pKd,[17],below the threshold
same,pKd,[18],4.05
same,pKd,[19],below the threshold
same,pKd,[20],3.72
same,pKd,[21],3.56
same,pKd,[22],below the threshold
same,pKd,[23],below the threshold
same,pKd,[24],below the threshold
same,pKd,[25],below the threshold
